Residue numbers refer to the chain shown, from its start. Names may count otherwise.

Usually Kd stands for a measure of binding affinity in units of concentration.

First the molecules themselves.
T1: recombinant FAP protein (BioLegend), biotinylated (Homo sapiens (Human), UniProt Q12884 26-760, Biotinylated (sites not given) for loading on streptavidin sensors. Any vendor tag is not stated in the passages shown.)
T1 construct: Loaded on streptavidin sensors for BLI; also called biotinylated FAP
T1 sequence: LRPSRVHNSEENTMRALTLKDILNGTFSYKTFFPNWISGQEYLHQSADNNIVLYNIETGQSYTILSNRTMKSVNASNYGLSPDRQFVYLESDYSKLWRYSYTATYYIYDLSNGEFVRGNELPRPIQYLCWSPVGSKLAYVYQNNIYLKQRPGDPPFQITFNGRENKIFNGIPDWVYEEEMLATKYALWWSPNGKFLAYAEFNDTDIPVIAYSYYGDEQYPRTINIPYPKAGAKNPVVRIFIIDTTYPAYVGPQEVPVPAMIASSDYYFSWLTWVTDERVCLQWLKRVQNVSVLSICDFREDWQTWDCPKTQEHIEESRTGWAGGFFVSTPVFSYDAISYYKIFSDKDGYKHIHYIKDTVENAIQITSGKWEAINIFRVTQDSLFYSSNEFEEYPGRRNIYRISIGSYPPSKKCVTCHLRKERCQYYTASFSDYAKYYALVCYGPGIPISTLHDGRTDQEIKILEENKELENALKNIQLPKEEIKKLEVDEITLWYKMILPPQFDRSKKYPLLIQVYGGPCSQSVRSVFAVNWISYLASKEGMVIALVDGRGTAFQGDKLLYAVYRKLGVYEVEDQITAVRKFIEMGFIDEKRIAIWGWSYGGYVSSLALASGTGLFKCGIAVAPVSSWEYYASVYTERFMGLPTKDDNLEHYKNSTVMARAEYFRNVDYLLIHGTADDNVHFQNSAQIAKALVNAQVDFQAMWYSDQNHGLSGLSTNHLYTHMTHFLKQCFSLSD

T2: mouse FAP on transiently transfected HEK293T cells (pMET7 FLAG-mFAP) (mouse, UniProt P97321 1-761)
T2 construct: whole, on cells; not shown: FLAG tag of the plasmid pMET7 FLAG-mFAP
T2 sequence (looked up): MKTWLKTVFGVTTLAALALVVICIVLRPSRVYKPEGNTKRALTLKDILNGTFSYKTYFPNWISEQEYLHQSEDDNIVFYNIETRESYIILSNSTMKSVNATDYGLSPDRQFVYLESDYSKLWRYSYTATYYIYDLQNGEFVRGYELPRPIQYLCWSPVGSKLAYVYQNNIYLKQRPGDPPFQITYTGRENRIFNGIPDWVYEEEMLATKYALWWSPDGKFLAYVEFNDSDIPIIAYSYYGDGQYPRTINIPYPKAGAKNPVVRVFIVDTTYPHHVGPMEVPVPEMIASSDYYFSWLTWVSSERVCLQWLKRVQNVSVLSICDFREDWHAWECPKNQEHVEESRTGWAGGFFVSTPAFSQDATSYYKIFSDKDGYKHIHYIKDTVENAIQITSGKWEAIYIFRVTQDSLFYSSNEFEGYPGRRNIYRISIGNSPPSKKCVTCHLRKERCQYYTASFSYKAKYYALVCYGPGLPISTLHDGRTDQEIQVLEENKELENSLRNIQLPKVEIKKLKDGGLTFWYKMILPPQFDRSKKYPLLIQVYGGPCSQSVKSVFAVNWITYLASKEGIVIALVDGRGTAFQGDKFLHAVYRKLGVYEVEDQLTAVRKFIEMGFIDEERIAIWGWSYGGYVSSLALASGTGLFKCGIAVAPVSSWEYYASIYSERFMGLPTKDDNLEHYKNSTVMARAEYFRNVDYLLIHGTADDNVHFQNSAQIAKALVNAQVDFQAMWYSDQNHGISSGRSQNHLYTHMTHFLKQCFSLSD

B1: P-1901: 2PE14 (VHH)
VHH: QVQLQESGGGLVQPGGSLRLSCAASGSTFSINAVAWYRQAPGKRRELVAGISGGGVTNYPDSVKGRFTISRDNAKNTVYLQMSSLKPEDTAVYYCNLWPPRASPGGRVYWGQGTQVTVSS
notes: also called pET28 PelB-2PE14
B2: P-1931: 3PE42_M31K (VHH)
VHH: B1 VHH with G16E, A24V, F29S, I31K, V34M, V56A, R107G
notes: also called pET28 PelB-3PE42_M42K
B3: P-1921: 2PE14_N32W (VHH)
VHH: B1 VHH with N32W
notes: also called pET28 PelB-2PE14_N32W
B4: P-1924: 3PE42_M31A (VHH)
VHH: B1 VHH with G16E, A24V, F29S, I31A, V34M, V56A, R107G
notes: also called pET28 PelB-3PE42_M42A
B5: P-1903: 2PE14_opt2 (Q1D_Q5V_P60A_A74S_K83R_Q108L) (VHH)
VHH: B1 VHH with Q1D, Q5V, P60A, A74S, K86R, Q115L
notes: also called pET28 PelB-2PE14_opt2 (idem + P60A)
B6: P-1934: 3PE42_M31P (VHH)
VHH: B1 VHH with G16E, A24V, F29S, I31P, V34M, V56A, R107G
notes: also called pET28 PelB-3PE42_M42P
B7: P-1905: 2PE14_opt4 (Q1D_Q5V_P60A_A74S_S82N_K83R_Q108L) (VHH)
VHH: B1 VHH with Q1D, Q5V, P60A, A74S, S83N, K86R, Q115L
B8: P-1915: 2PE14_N32P (VHH)
VHH: B1 VHH with N32P
notes: also called pET28 PelB-2PE14_N32P
B9: P-1908: 2PE14_N32E (VHH)
VHH: B1 VHH with N32E
notes: also called pET28 PelB-2PE14_N32E
B10: P-1902: 2PE14_opt1 (Q1D_Q5V_A74S_K83R_Q108L) (VHH)
VHH: B1 VHH with Q1D, Q5V, A74S, K86R, Q115L
notes: also called pET28 PelB-2PE14_opt1
B11: P-1906: 2PE14_N32A (VHH)
VHH: B1 VHH with N32A
notes: also called pET28 PelB-2PE14_N32A
B12: P-1916: 2PE14_N32Q (VHH)
VHH: B1 VHH with N32Q
notes: also called pET28 PelB-2PE14_N32Q
B13: P-1941: 3PE42_M31Y (VHH)
VHH: B1 VHH with G16E, A24V, F29S, I31Y, V34M, V56A, R107G
notes: also called pET28 PelB-3PE42_M42Y
B14: P-1936: 3PE42_M31R (VHH)
VHH: B1 VHH with G16E, A24V, F29S, I31R, V34M, V56A, R107G
notes: also called pET28 PelB-3PE42_M42R
B15: P-1920: 2PE14_N32V (VHH)
VHH: B1 VHH with N32V
notes: also called pET28 PelB-2PE14_N32V
B16: P-1940: 3PE42_M31W (VHH)
VHH: B1 VHH with G16E, A24V, F29S, I31W, V34M, V56A, R107G
notes: also called pET28 PelB-3PE42_M42W
B17: P-1919: 2PE14_N32T (VHH)
VHH: B1 VHH with N32T
notes: also called pET28 PelB-2PE14_N32T
B18: P-1907: 2PE14_N32D (VHH)
VHH: B1 VHH with N32D
notes: also called pET28 PelB-2PE14_N32D
B19: P-1914: 2PE14_N32L (VHH)
VHH: B1 VHH with N32L
notes: also called pET28 PelB-2PE14_N32L
B20: P-1922: 2PE14_N32Y (VHH)
VHH: B1 VHH with N32Y
notes: also called pET28 PelB-2PE14_N32Y
B21: P-1927: 3PE42_M31F (VHH)
VHH: B1 VHH with G16E, A24V, F29S, I31F, V34M, V56A, R107G
notes: also called pET28 PelB-3PE42_M42F
B22: P-1929: 3PE42_M31H (VHH)
VHH: B1 VHH with G16E, A24V, F29S, I31H, V34M, V56A, R107G
notes: also called pET28 PelB-3PE42_M42H
B23: P-1918: 2PE14_N32S (VHH)
VHH: B1 VHH with N32S
notes: also called pET28 PelB-2PE14_N32S
B24: P-1926: 3PE42_M31E (VHH)
VHH: B1 VHH with G16E, A24V, F29S, I31E, V34M, V56A, R107G
notes: also called pET28 PelB-3PE42_M42E
B25: P-1937: 3PE42_M31S (VHH)
VHH: B1 VHH with G16E, A24V, F29S, I31S, V34M, V56A, R107G
notes: also called pET28 PelB-3PE42_M42S
B26: P-1911: 2PE14_N32H (VHH)
VHH: B1 VHH with N32H
notes: also called pET28 PelB-2PE14_N32H
B27: P-1917: 2PE14_N32R (VHH)
VHH: B1 VHH with N32R
notes: also called pET28 PelB-2PE14_N32R
B28: P-1913: 2PE14_N32K (VHH)
VHH: B1 VHH with N32K
notes: also called pET28 PelB-2PE14_N32K
B29: P-1904: 2PE14_opt3 (Q1D_Q5V_A74S_S82N_K83R_Q108L) (VHH)
VHH: B1 VHH with Q1D, Q5V, A74S, S83N, K86R, Q115L
notes: also called pET28 PelB-2PE14_opt3 (idem + S82N)
B30: P-1925: 3PE42_M31D (VHH)
VHH: B1 VHH with G16E, A24V, F29S, I31D, V34M, V56A, R107G
notes: also called pET28 PelB-3PE42_M42D
B31: P-1932: 3PE42_M31L (VHH)
VHH: B1 VHH with G16E, A24V, F29S, I31L, V34M, V56A, R107G
notes: also called pET28 PelB-3PE42_M42L
B32: P-1912: 2PE14_N32I (VHH)
VHH: B1 VHH with N32I
notes: also called pET28 PelB-2PE14_N32I
B33: P-1930: 3PE42_M31I (VHH)
VHH: B1 VHH with G16E, A24V, F29S, V34M, V56A, R107G
notes: also called pET28 PelB-3PE42_M42I
B34: P-1939: 3PE42_M31V (VHH)
VHH: B1 VHH with G16E, A24V, F29S, I31V, V34M, V56A, R107G
notes: also called pET28 PelB-3PE42_M42V
B35: P-1935: 3PE42_M31Q (VHH)
VHH: B1 VHH with G16E, A24V, F29S, I31Q, V34M, V56A, R107G
notes: also called pET28 PelB-3PE42_M42Q
B36: P-1938: 3PE42_M31T (VHH)
VHH: B1 VHH with G16E, A24V, F29S, I31T, V34M, V56A, R107G
notes: also called pET28 PelB-3PE42_M42T
B37: P-1928: 3PE42_M31G (VHH)
VHH: B1 VHH with G16E, A24V, F29S, I31G, V34M, V56A, R107G
notes: also called pET28 PelB-3PE42_M42G
B38: P-1909: 2PE14_N32F (VHH)
VHH: B1 VHH with N32F
notes: also called pET28 PelB-2PE14_N32F
B39: P-1910: 2PE14_N32G (VHH)
VHH: B1 VHH with N32G
notes: also called pET28 PelB-2PE14_N32G
B40: P-1923: 3PE42 (VHH)
VHH: B1 VHH with G16E, A24V, F29S, I31M, V34M, V56A, R107G
notes: also called pET28 PelB-3PE42
B41: P-1933: 3PE42_M31N (VHH)
VHH: B1 VHH with G16E, A24V, F29S, I31N, V34M, V56A, R107G
notes: also called pET28 PelB-3PE42_M42N
B42: 2PE14 (VHH)
VHH: B1 VHH
B43: 2PE17 (VHH)
VHH: B1 VHH with P14S

One test deals with T1, recombinant FAP protein (BioLegend), …. The test can be described thus: BLI (Octet RED96), biotinylated FAP on streptavidin sensors.
As to B1, the Kd is 0.667 nM.
As to B2, the dissociation constant (Kd) is 0.851 nM.
For B3, the Kd stood at 0.221 nM.
Turning to B4, the dissociation constant Kd was 0.0889 nM.
In the case of B5, the Kd came out at 2.26 nM.
For the molecule B6, the Kd was 1.34 nM.
As for B7, the Kd stood at 3.76 nM.
On to B8, for which the Kd was 1.17 nM.
B9: the Kd was 1.09 nM.
Same read-out and setting: under B10 stands 0.0951 nM; under B11, 3.56 nM; under B12, 0.386 nM.
For B13, the Kd stood at 1.12 nM.
On the same count and under the same terms, under B14 stands 0.0276 nM; under B15, 100 nM.
In the case of B16, the Kd came out at 0.0945 nM.
On the same count and under the same terms, the same measure for B17: 4.11 nM; for B18: 10.8 nM.
On to B19, for which the equilibrium dissociation constant (Kd) was 1.25 nM.
On the same count and under the same terms, the same measure for B20: 14.5 nM; for B21: 1.17 nM.
On the same count and under the same terms, under B22 stands 1.12 nM; under B23, 556 nM.
With B24, the equilibrium dissociation constant (Kd) was 1.85 nM.
Take B25: the Kd was 0.613 nM.
As for B26, the Kd came to 3.69 nM.
On the same count and under the same terms, the same measure for B27: 0.317 nM.
Take B28: the Kd turned out to be 2.67 nM.
For B29, the Kd was determined as 0.653 nM.
Take B30: the equilibrium dissociation constant (Kd) came to 0.165 nM.
In the case of B31, the Kd was determined as 0.872 nM.
As to B32, the Kd came to 16.8 nM.
B33: the Kd is 2.87 nM.
Consider B34, for which the Kd was found to be 2.45 nM.
In the case of B35, the Kd stood at 0.214 nM.
For B36, the Kd stood at 1.16 nM.
As for B37, the Kd was found to be 4.02 nM.
Turning to B38, the dissociation constant Kd was determined as 0.468 nM.
As to B39, the Kd turned out to be 4.62 nM.
In the case of B40, the equilibrium dissociation constant (Kd) came to 0.588 nM.
Consider B41, for which the Kd is 0.567 nM.

The target in another test is T2, mouse FAP on transiently transfected …. The test can be described thus: FACS, serial dilution of purified VHH on transfected HEK293T cells. (In general: A flow cytometer gives signals particle by particle.)
Turning to B42, the binding result is given as “binds”.
With B43, the binding result is recorded as “binds”.

(Values after US20220332844A1 (ORIONIS BIOSCIENCES, published 2022).)
